Reference: the supplement of paper PMC9170038

Tested on: MS2 coat protein
Experiment: apparent KD of MS2 coat protein; designed switch direction (-1 OFF switch, 1 ON switch): 1; higher = weaker reporter binding
In short: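 Stalled E. coli RNA polymerase transcribed designed RNA switches on Illumina chips, which were then titrated with SNAP-549-labelled MS2 coat protein, doubling from 0.7 or 1.5 nM to 3 µM. Steps lasted from 0.8–1.5 h at the lowest concentration to 10–20 min at the highest. The apparent KD is each design's median over clusters of curve-fitted normalised fluorescence.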

[1] = input ligand: microRNA oligo, concentration not stated
[2] = Eterna round: R95, input ligand: FMN 200 uM
[3] = Eterna round: R95, input ligand: microRNA oligo, concentration not stated
[4] = Eterna round: R95, input ligand: none

GCUCGAUGAAUGUCCUACAUGAGGAUCACCCAUGUACGUGGGCAGGAUAUUUACAUGCAGAGUGUAGAGAAGGGCCCAUCGAGC [SameState NG3 #62] (Eterna round: R96, puzzle: Same State NG 3)
apparent KD of MS2 coat protein (input ligand: FMN 200 uM): 16.1 nM | apparent KD of MS2 coat protein [1]: 28.6 nM | apparent KD of MS2 coat protein (input ligand: none): 49.1 nM

GGAGCCGGCACCGAGGAUAUUCAUAUUAAAACAUGAGGAUCACCCAUGUAGCUCGAAAGAGCUUGGGAGAAGGCGGAUCGGCUCG [Xeonanis - 29] (Eterna round: R96, puzzle: Same State 2)
apparent KD of MS2 coat protein (input ligand: FMN 200 uM): 37.3 nM | apparent KD of MS2 coat protein [1]: 322 nM | apparent KD of MS2 coat protein (input ligand: none): 633 nM

GUUAAACAUGAGGAUCACCCAUGUCAAUGUAGUCGAGGAUAUGGGCAGCUAUGAGGCGUACUAGAAGGCGAAAAGU [Mat - Same State 1 - Mod of JL - D13] (puzzle: Same State 1)
apparent KD of MS2 coat protein [2]: 117 nM | apparent KD of MS2 coat protein [3]: 260 nM | apparent KD of MS2 coat protein [4]: 535 nM

CAAAAUUAGUAGGAUAGGUACCCAGGAUGACAUGAGGAUCACCCAUGUAAGAGCUUUUUGCUCGUCAUUAACAGUUG [JR_SHM208a_Sub016] (puzzle: Sensor for hsa-mir-208a)
apparent KD of MS2 coat protein [2]: 55.7 nM | apparent KD of MS2 coat protein [3]: 55.7 nM | apparent KD of MS2 coat protein [4]: 68 nM

UUAUAACAUGAGGAUCACCCAUGUCAUCUAAGUCGAGGAUAUGGGAAUUAAUUAAUUAAACCAGAAGGCGAAAAUU [Mat - Same State 1 - D91] (puzzle: Same State 1)
apparent KD of MS2 coat protein [2]: 160 nM | apparent KD of MS2 coat protein [3]: 149 nM | apparent KD of MS2 coat protein [4]: 783 nM

GCUCGGCUGAUGGCCCACAUGAGGAUCACCCAUGUGAGUGGGCAGGAUAUCUAGAUUAAGGAUGUAGAGAAGGGCCUGCCGAGC [SameState NG3 #36] (Eterna round: R96, puzzle: Same State NG 3)
apparent KD of MS2 coat protein (input ligand: FMN 200 uM): 2290 nM | apparent KD of MS2 coat protein [1]: 19 nM | apparent KD of MS2 coat protein (input ligand: none): 559 nM

GUACUACAUGAGGAUCACCCAUGUUACCUUCACGGAGGAUAUAGGAAAUGAGGUGAGAUGCUAGAAGGCCGAGGAA [Candy Rainbow 4] (puzzle: Same State 1)
apparent KD of MS2 coat protein [2]: 102 nM | apparent KD of MS2 coat protein [3]: 78.3 nM | apparent KD of MS2 coat protein [4]: 95.9 nM

UUUGCAUGACGAGGAUAUCAUUUAUUUCUUGAUUGAGAAGGCGUUCUUUUUACUACCUAACAUGAGGAUCACCCAUGUGACAGU [JR_SSNG1_Sub048] (Eterna round: R96, puzzle: Same State NG 1)
apparent KD of MS2 coat protein [1]: 11.3 nM

UGCUACGGAGACAUGAGGAUCACCCAUGUCGCUGCUUAAGGGCAGGAUAUGAAAGGGAAUCCCAAUCAGAAGGGCCGCAGCCAC [Isanxeanor] (Eterna round: R96, puzzle: Same State NG 3)
apparent KD of MS2 coat protein (input ligand: FMN 200 uM): 35.3 nM | apparent KD of MS2 coat protein [1]: 22.8 nM | apparent KD of MS2 coat protein (input ligand: none): 32.6 nM

UUUAGUUGCGGGCAGGAUAUGUAUUAAAAUACAUGAGGAUCACCCAUGUGAGGUCAUAAAGACCUGCAGAAGGGCCAAUCGCGAC [Laonerce - 17] (puzzle: Same State 2)
apparent KD of MS2 coat protein [2]: 11.5 nM | apparent KD of MS2 coat protein [3]: 86.8 nM | apparent KD of MS2 coat protein [4]: 48.3 nM

CCAGCAUCACGAGGAUAUGGAGGUUCCCGAAAGACAUGAGGAUCACCCAUGUAUGUACGCCGCCUUCAGAAGGUGUAUAAGCGA [Eternabot solution 31] (Eterna round: R96, puzzle: Same State NG 2)
apparent KD of MS2 coat protein (input ligand: FMN 200 uM): 65.7 nM | apparent KD of MS2 coat protein [1]: 38.2 nM | apparent KD of MS2 coat protein (input ligand: none): 58.7 nM

UUGAAGAAUUAAGGAUAUUGAAUACAUAUGUUUAACAUGAGGAUCACCCAUGUGGGUUGCGGUAUCGAGAAGGUAAAUAAAUAG [Mat - Same State NG 2 - JL mod - D3] (Eterna round: R96, puzzle: Same State NG 2)
apparent KD of MS2 coat protein (input ligand: FMN 200 uM): 169 nM | apparent KD of MS2 coat protein [1]: 110 nM | apparent KD of MS2 coat protein (input ligand: none): 159 nM

CUCACUUGGGUAGGAUAUCUAGGAUAUGGGAAAGACUAAGUCUGUAGGUCACCUAACCCAGAUGGAGAGAAGGACCCAACACUC [pwkr ssNG2 2FMN + F9.38] (Eterna round: R96, puzzle: Same State NG 2)
apparent KD of MS2 coat protein (input ligand: FMN 200 uM): 57.9 nM | apparent KD of MS2 coat protein [1]: 2.64 nM | apparent KD of MS2 coat protein (input ligand: none): 33.1 nM

AAAAGACAUGAGGAUCACCCAUGUGAAAACGUAGGAGGAUAUGUCGUGAAAAAAGACUUGACAGAAGGCCUGUGUC [SS1 - 34] (Eterna round: R96, puzzle: Same State 1)
apparent KD of MS2 coat protein [1]: 88.9 nM

CGUCCGGCCUGUGCUGGCCGGUGGCUUGUACAUGAGGAUCACCCAUGUUCUUGUGCUGGCUUUUUGCUCGUCGUGUG [salish99_mir208a_r3_023] (puzzle: Sensor for hsa-mir-208a)
apparent KD of MS2 coat protein [2]: 32.6 nM | apparent KD of MS2 coat protein [3]: 19.8 nM | apparent KD of MS2 coat protein [4]: 37.9 nM

GGUAGGUUACUACCAAACAUGAGGAUCACCCAUGUUAAUGGGAAGGAUAUGGUACCUAUUUGGUACCAGAAGGUCCAAUUAAUU [JL Fiskers NG3ss - 2 mod 4] (Eterna round: R96, puzzle: Same State NG 3)
apparent KD of MS2 coat protein (input ligand: FMN 200 uM): 70.4 nM | apparent KD of MS2 coat protein [1]: 520 nM | apparent KD of MS2 coat protein (input ligand: none): 493 nM

AGGCUCAGACGAGGAUAUGAUCAUGGCGCUUCGGCGCAUACAUGAGGAUCACCCAUGUAGGGUGAUCAGAAGGUGUCUGAGCCA [SSNG2/8-B1] (Eterna round: R96, puzzle: Same State NG 2)
apparent KD of MS2 coat protein (input ligand: FMN 200 uM): 92.1 nM | apparent KD of MS2 coat protein [1]: 505 nM | apparent KD of MS2 coat protein (input ligand: none): 1210 nM

UGUUGUAUUACAGGAUAUCUAUGGUUUUUAUUUAGAGAAGGGUAUUCACAUGAGGAUCACCCAUGUAUAUACGAGGAAGUUGUG [JMF's solution 58] (Eterna round: R96, puzzle: Same State NG 1)
apparent KD of MS2 coat protein [1]: 41.6 nM

UAGUGAUUGCAAGGAUAUGCUUGUGUUUUAUUUUUUUUAAUAUCUAACAUGAGGAUCACCCAUGUGCAGAAGGUGCUUGAUUUG [JR_SSNG2_Sub076] (Eterna round: R96, puzzle: Same State NG 2)
apparent KD of MS2 coat protein [1]: 46.5 nM

GUAGCAUACCGAGGAUAUUCAUAUUAUACAUGAGGAUCACCCAUGUAAGGUCGAUUACGACCUUGGGAGAAGGCGGAAUGCUAC [Xeonanis - 20 Mod34] (Eterna round: R96, puzzle: Same State NG 2)
apparent KD of MS2 coat protein (input ligand: FMN 200 uM): 20.3 nM | apparent KD of MS2 coat protein [1]: 71.9 nM | apparent KD of MS2 coat protein (input ligand: none): 108 nM

AGAUCAUGACGAGGAUAUGGUACAUGAGGAUCACCCAUGUAUGUACUAUAAUUCGAAUGAGGAAUCCAGAAGGCGUCGUGGUCA [JL SSNG2 1.15] (Eterna round: R96, puzzle: Same State NG 2)
apparent KD of MS2 coat protein (input ligand: FMN 200 uM): 15.3 nM | apparent KD of MS2 coat protein [1]: 29.6 nM | apparent KD of MS2 coat protein (input ligand: none): 55.4 nM

AGCUAUUAAUCAGGAUAUGGUGACAUGAGGAUCACCCAUGUAUAGAUGAUUAAAUGUGGUCUAAACUAGAAGGGAUUGCUAACA [SameState NG2 #55] (Eterna round: R96, puzzle: Same State NG 2)
apparent KD of MS2 coat protein (input ligand: FMN 200 uM): 214 nM | apparent KD of MS2 coat protein [1]: 247 nM | apparent KD of MS2 coat protein (input ligand: none): 219 nM

UUAAUAAUGUAAGGAUAUACAUGAGGAUUUCUCGUAGAAGGUACAGGACAUGAGGAUCACCCAUGUAUCGCUCGAAAGAGCGUA [Mat - Same State NG 1 - JL mod - D25] (Eterna round: R96, puzzle: Same State NG 1)
apparent KD of MS2 coat protein (input ligand: FMN 200 uM): 521 nM | apparent KD of MS2 coat protein [1]: 217 nM | apparent KD of MS2 coat protein (input ligand: none): 1130 nM

GGAUGAUAGACAGGAUAUUGAUUGUAAUUAGGUCAAGAAGGGUCUUUGAUUUAAACGACCAGUUACAUGAGGAUCACCCAUGUU [JR_SSNG1_Sub028] (Eterna round: R96, puzzle: Same State NG 1)
apparent KD of MS2 coat protein (input ligand: FMN 200 uM): 82.5 nM | apparent KD of MS2 coat protein [1]: 65.9 nM | apparent KD of MS2 coat protein (input ligand: none): 201 nM

UUAUUAUUUAUAGGAUAUUGAUGUUUGCUAGUACAAGAAGGAUAAACAUGAGGAUCACCCAUGUAGUUUAAGGUUAGUUUGUUU [JR_SSNG1_Sub078] (Eterna round: R96, puzzle: Same State NG 1)
apparent KD of MS2 coat protein [1]: 25.2 nM

GCUCGUGGUAUUGUCUACAUGAGGAUCACCCAUGUAGGUGCGGAGGAUAUCUACGUGUCUCAUGUAGAGAAGGUCGUCACGAGC [SameState NG3 #99] (Eterna round: R96, puzzle: Same State NG 3)
apparent KD of MS2 coat protein (input ligand: FMN 200 uM): 61.2 nM | apparent KD of MS2 coat protein [1]: 174 nM | apparent KD of MS2 coat protein (input ligand: none): 38.7 nM

AGUCCAGCCUGAGCUGGACAAAAGCAUGUACAUGAGGAUCACCCAUGUCAUGUACAAGCUUUUUGCUCGUCUAAAAU [Mat - hsa-mir-208a - Mod of JL - D6] (puzzle: Sensor for hsa-mir-208a)
apparent KD of MS2 coat protein [2]: 430 nM | apparent KD of MS2 coat protein [3]: 16.3 nM | apparent KD of MS2 coat protein [4]: 675 nM

GUGCAAAUCAUAGGAUAUGGGCGGGAAUGCCGUCCAGAAGGAUGAACAUGAGGAUCACCCAUGUCCAGCCGCAAAUACGCGGCC [Sodirien] (Eterna round: R96, puzzle: Same State NG 1)
apparent KD of MS2 coat protein (input ligand: FMN 200 uM): 93.8 nM | apparent KD of MS2 coat protein [1]: 95.1 nM | apparent KD of MS2 coat protein (input ligand: none): 192 nM

GCAAUAAGGUGAGGAUAUGCAGAGGAUCACCCUGUAGAAGGCAUCAGGUGAGGAUAUGCAGAGGAUCACCCUGUAGAAGGCAUC [pwkr ssNG DX.15] (Eterna round: R96, puzzle: Same State NG 1)
apparent KD of MS2 coat protein (input ligand: FMN 200 uM): 100 nM | apparent KD of MS2 coat protein [1]: 123 nM | apparent KD of MS2 coat protein (input ligand: none): 175 nM

UUAAUUUACUGAGGAUAUCGUGUCGACUGAGUUGACAUGAGGAUCACCCAUGUGUGAAGUGGUAUCGAGAAGGCAGUUUUCUUA [JR_SSNG2_Sub026] (Eterna round: R96, puzzle: Same State NG 2)
apparent KD of MS2 coat protein (input ligand: FMN 200 uM): 19 nM | apparent KD of MS2 coat protein [1]: 76.9 nM | apparent KD of MS2 coat protein (input ligand: none): 122 nM

UACAUACGCGGAGGAUAUGGGCGAGGCGCAGAGGUCUGCGUCAAAACAUGAGGAUCACCCAUGUCCCAGAAGGCCGCGUAAACU [Enisen] (Eterna round: R96, puzzle: Same State NG 2)
apparent KD of MS2 coat protein (input ligand: FMN 200 uM): 15.7 nM | apparent KD of MS2 coat protein [1]: 51.3 nM | apparent KD of MS2 coat protein (input ligand: none): 73.4 nM
